Data as given in the supplement of paper PMC9732359.
± gives the uncertainty stated by the source.

Experiment: protein stability index of a GFP-peptide fusion (yeast GPS) (PSI 1-4); higher = more stable; sorted into four equal gates, so the index is relative within each strain
In short: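 Tiled 17-residue peptides from yeast proteins were fused downstream of GFP on a plasmid that also expresses Cherry, and the pooled library was carried in yeast. Mid-log cultures grown in leucine-free medium were sorted into four equal gates by GFP/Cherry fluorescence ratio. Plasmids from each gate were PCR-amplified and Illumina-sequenced, and reads were assigned to strains by barcodes. Each peptide's protein stability index is the sum, over gates, of the gate's read frequency multiplied by its gate number.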

Row | Sequence | protein stability index (ubr1∆) | protein stability index (san1∆) | protein stability index (doa10∆) | protein stability index (pdr5∆)
1 | RERIKRGAHVEKTMVKK [PRP8] | 2.78 ± 0.18 | – | – | –
2 | RERIRKGLQIYQSSVQE [PRP8] | – | 1.81 ± 0.24 | – | –
3 | RESRIVSTEGNVPQTLA [RPL21A] | 2.3 ± 0.095 | 2.94 ± 0.1 | 2.13 ± 0.08 | 2.25 ± 0.082
4 | RFPTKFVTQFRHLRRTG [RET1] | 2.17 ± 0.068 | – | 1.41 ± 0.078 | 1.73 ± 0.14
5 | RGFFHLNEALLQCPMLY [CSN12] | 1.99 ± 0.056 | 1.9 ± 0.13 | 2.06 ± 0.071 | 2.2 ± 0.058
6 | RGGFGGRNRGRPNRRGP [RPS2] | 3.4 ± 0.13 | 3.44 ± 0.077 | 3.37 ± 0.095 | 3.28 ± 0.14
7 | RGREEAASFKKLYKTPI [PRE10] | 2.97 ± 0.13 | 1.45 ± 0.2 | 2.6 ± 0.17 | 3.06 ± 0.27
8 | RGTTAVLKESIVNICDI [PUP1] | 1.79 ± 0.27 | – | – | 3.2 ± 0.22
9 | RHLEKEGIIKPISKHSK [RPS25A] | 3.01 ± 0.076 | 2.96 ± 0.084 | 3.04 ± 0.084 | 3.28 ± 0.093
10 | RIATEASKLAAYNKKST [HTB1] | 2.94 ± 0.098 | – | 3.21 ± 0.097 | 2.47 ± 0.24
11 | RIFAIAFTRKQANQVKR [RPS1A] | 1.98 ± 0.02 | 1.99 ± 0.031 | 1.59 ± 0.018 | 1.66 ± 0.019
12 | RIKLATTSERVSNENKK [RRI1] | 3.1 ± 0.11 | 2.94 ± 0.066 | 2.88 ± 0.063 | 3.08 ± 0.071
13 | RISGLIYEEVRAVLKSF [HHF1] | – | 3.16 ± 0.11 | 3.33 ± 0.14 | 3.13 ± 0.2
14 | RKANREEKLKANKEKKK [RPL24A] | 2.31 ± 0.053 | 2.15 ± 0.087 | 2.88 ± 0.074 | 1.98 ± 0.066
15 | RKDTVSREVLRYEEFAD [RPC40] | 3.3 ± 0.11 | 3.32 ± 0.082 | 3.38 ± 0.11 | 3.59 ± 0.15
16 | RKFALEKLYIFYKLNMP [SRP72] | 1.29 ± 0.039 | 1.44 ± 0.085 | 1.99 ± 0.046 | 1.79 ± 0.057
17 | RKLFPNWIKPSDSEIPP [PRP8] | 2.97 ± 0.053 | 2.91 ± 0.069 | 3.42 ± 0.16 | 2.89 ± 0.11
18 | RKPILLPDPKPLPLDLN [ITC1] | 2.14 ± 0.04 | 2.52 ± 0.065 | 2.34 ± 0.044 | 2.55 ± 0.045
19 | RKRVYNIKFLSKLEGTI [ESC2] | 3.21 ± 0.16 | – | – | 3.51 ± 0.2
20 | RKVVFPFQLDVADMLTP [UBP6] | 2.05 ± 0.096 | 2.57 ± 0.078 | 2.29 ± 0.11 | 2.02 ± 0.12
21 | RLECVKCKTRAQLTLKR [RPL42A] | 2.54 ± 0.056 | 2.52 ± 0.14 | 2.8 ± 0.096 | 2.46 ± 0.085
22 | RLENKLSEIESLDEILL [SRP68] | 3 ± 0.085 | 2.92 ± 0.11 | 2.97 ± 0.095 | 2.99 ± 0.11
23 | RLFIGDQNNKKMVGLRG [SNF2] | 2.69 ± 0.082 | 2.36 ± 0.1 | 2.65 ± 0.1 | 2.87 ± 0.085
24 | RLKQVFNRALDQSISKL [NNF1] | 2.16 ± 0.036 | 1.93 ± 0.043 | 2.05 ± 0.056 | 2.11 ± 0.039
25 | RLLITGTPLQNNLHELW [ISW2] | 2.83 ± 0.064 | 2.99 ± 0.062 | 2.68 ± 0.066 | 2.61 ± 0.076
26 | RLLNTNVDGNIKIVYAL [RPS18A] | 3.27 ± 0.16 | – | – | –
27 | RLNKLNSNGIAMASLYL [SMD1] | 2.67 ± 0.069 | 2.78 ± 0.065 | 2.82 ± 0.075 | 2.95 ± 0.063
28 | RLSNEMHALKNRSEQNG [RGR1] | 2.9 ± 0.12 | 3.09 ± 0.16 | 3.32 ± 0.12 | 3.25 ± 0.17

Row | Sequence | protein stability index (ubr1∆) | protein stability index (san1∆) | protein stability index (doa10∆) | protein stability index (pdr5∆)
29 | RLTGSLLAHKVADEEAN [RPC37] | 1.06 ± 0.056 | 1.16 ± 0.12 | 1.22 ± 0.057 | 1.32 ± 0.068
30 | RNADELSSYQKKIIKCD [PRE5] | 1.65 ± 0.049 | 2.58 ± 0.086 | 2.25 ± 0.058 | 2.08 ± 0.084
31 | RNEKIAVHVTVRGPKAE [RPL11A] | 2.62 ± 0.053 | 1.93 ± 0.12 | 2.54 ± 0.067 | 2.3 ± 0.061
32 | RNETSVDEEDENGTHND [YCG1] | – | – | 3.08 ± 0.26 | –
33 | RNIILEARFDVLITSYE [ISW2] | 2.61 ± 0.074 | 2.41 ± 0.088 | 2.85 ± 0.11 | 2.22 ± 0.076
34 | RNMAEEFEYDDEPDEQG [CYT1] | 3.09 ± 0.059 | 3.17 ± 0.064 | 3.12 ± 0.073 | 3.17 ± 0.061
35 | RNQEKKMEKKKSSSLSL [SNM1] | 2.98 ± 0.1 | 2.68 ± 0.22 | 3.53 ± 0.22 | 3.5 ± 0.16
36 | RPKCGDCGSALQGISTL [RPL34A] | 1.41 ± 0.052 | 1.32 ± 0.1 | 1.34 ± 0.08 | 1.42 ± 0.067
37 | RPKKVKLEGSENSEPPA [SNF2] | 3.28 ± 0.063 | 3.33 ± 0.079 | 3.13 ± 0.095 | 2.95 ± 0.08
38 | RPNGRKDHDLKIPLPEV [POP1] | 3.15 ± 0.065 | 2.99 ± 0.073 | 3.06 ± 0.055 | 3.18 ± 0.058
39 | RQFLKANKTNLIESLNT [YML103C/NUP188] | 2.99 ± 0.039 | 2.87 ± 0.047 | 2.76 ± 0.053 | 2.97 ± 0.062
40 | RQLTSMEFSNLYKEFFN [NUT1] | 2.25 ± 0.067 | 2.85 ± 0.089 | 2.48 ± 0.079 | 2.59 ± 0.068
41 | RQMKDVNAPLPTPFKVD [RPN2] | 2.86 ± 0.053 | 2.79 ± 0.064 | 3.07 ± 0.079 | 3.04 ± 0.066
42 | RQPSLHKMSMMAHRVKV [RPO21] | 1.68 ± 0.082 | 2.81 ± 0.09 | 2.2 ± 0.085 | 2.37 ± 0.073
43 | RQQAYKTAQTLDENLNS [YJL041W/NSP1] | 2.8 ± 0.05 | 3.12 ± 0.067 | 2.84 ± 0.078 | 2.76 ± 0.079
44 | RQQKLLLETKLRQQYEI [SWI1] | 2.91 ± 0.11 | 3.17 ± 0.068 | 3.06 ± 0.11 | 2.93 ± 0.1
45 | RQREMAEEQTKLQSQSL [YLR018C/POM34] | 3.1 ± 0.036 | 3.11 ± 0.05 | 3.18 ± 0.045 | 3.28 ± 0.046
46 | RQYVGQLAPSSVDPQSS [DIS3] | 2.62 ± 0.055 | 2.92 ± 0.063 | 2.69 ± 0.05 | 3.06 ± 0.059
47 | RREELQQRIREIGLLPE [SMC3] | 3.45 ± 0.066 | 3.21 ± 0.075 | 3.34 ± 0.12 | 3.06 ± 0.2
48 | RRFNSSIGRTAQGKEFG [RPL17A] | 2.89 ± 0.07 | 2.95 ± 0.098 | 3.03 ± 0.078 | 2.96 ± 0.089
49 | RRGYQVYREVCAACHSL [CYT1] | 1.59 ± 0.039 | 1.47 ± 0.085 | 2.22 ± 0.073 | 1.94 ± 0.059
50 | RRILAAAAAAAAAVSGN [SSN3] | 1.59 ± 0.094 | 1.06 ± 0.26 | 1.41 ± 0.12 | 1.26 ± 0.1
51 | RRLPEDESYARAYRIIR [QCR7] | 2.42 ± 0.043 | 2.53 ± 0.043 | 2.81 ± 0.056 | 2.72 ± 0.061
52 | RRLPMTMFTAEQSELLK [SNF2] | 2.91 ± 0.055 | 2.83 ± 0.053 | 2.99 ± 0.073 | 3.08 ± 0.073
53 | RRRAFKRSQKKHKKKHL [RPB4] | 3.46 ± 0.077 | 3.13 ± 0.057 | 3.16 ± 0.091 | 3.1 ± 0.078
54 | RRRRLKKVEEEENAATL [RPB4] | – | – | 3.17 ± 0.2 | 3.75 ± 0.26
55 | RRRSSTNKSKRPSITEA [MED1] | 3.04 ± 0.077 | 2.87 ± 0.08 | 3.02 ± 0.09 | 3.15 ± 0.061
